From patent publication US20200109196A1 (MOGAM INSTITUTE FOR BIOMEDICAL RESEARCH, published 2020)

What was measured:
[1] = molecular target: T1, recombinant human CEACAM-1/CD66a protein (R&D systems; Cat. No. 2244-CM) (human, UniProt P13688 35-428); test: Octet QKe biolayer interferometry, anti-His (HIS1K) biosensors, antibody 6.25-400 nM
T1 construct: Bought protein; captured on anti-His (His1K) biosensors in the Octet assay, so it carries a His tag; also called HCCM1; recombinant CEACAM-1/CD66a protein
T1 sequence (looked up): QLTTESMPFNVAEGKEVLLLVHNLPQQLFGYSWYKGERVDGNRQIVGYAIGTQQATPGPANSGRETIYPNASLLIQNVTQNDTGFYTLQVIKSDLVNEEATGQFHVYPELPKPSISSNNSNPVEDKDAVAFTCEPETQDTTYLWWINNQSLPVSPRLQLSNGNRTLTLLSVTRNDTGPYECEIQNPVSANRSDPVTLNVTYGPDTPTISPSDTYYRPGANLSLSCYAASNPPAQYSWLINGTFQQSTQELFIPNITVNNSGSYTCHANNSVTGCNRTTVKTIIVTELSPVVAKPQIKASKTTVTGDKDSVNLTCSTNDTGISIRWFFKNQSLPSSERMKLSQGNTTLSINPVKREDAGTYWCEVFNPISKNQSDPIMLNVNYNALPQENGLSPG
Description: The last well in each row was with a sample at the antibody concentration of 0 nM. Recombinant human CEACAM1 protein (R&D Systems; Cat. No. 2244-CM) was diluted to obtain a concentration of […], and dispensed into each well of another column at 200 μl/well.
As for the washing buffer, neutralization buffer and baseline buffer, Reagent/Kinetics buffer (10×) (Fortebio; Cat. No. 18-1092) were 1:10 diluted and dispensed into each well of a column in a row at 200 μl/well, and the regeneration buffer was dispensed into each well at 200 μl/well. Greiner 96-well plate was separately prepared, Reagent/Kinetics buffer (1×) was dispensed into each well of the number of biosensors to be used in a row at 200 μl/well, and Biosensors/Anti-His (His1K) (Fortebio; Cat. No. 18-5120) cassette was installed.

mCCM1 = molecular target: T2, mCCM1; test: ELISA on coated antigen (0.25 µg/ml), HRP anti-human IgG Fab, OD450
T2 construct: also called mouse CCM1; mouse CEACAM1/CD66a protein (Sino Biological); not shown: the vendor's polyhistidine tag
T2 chain: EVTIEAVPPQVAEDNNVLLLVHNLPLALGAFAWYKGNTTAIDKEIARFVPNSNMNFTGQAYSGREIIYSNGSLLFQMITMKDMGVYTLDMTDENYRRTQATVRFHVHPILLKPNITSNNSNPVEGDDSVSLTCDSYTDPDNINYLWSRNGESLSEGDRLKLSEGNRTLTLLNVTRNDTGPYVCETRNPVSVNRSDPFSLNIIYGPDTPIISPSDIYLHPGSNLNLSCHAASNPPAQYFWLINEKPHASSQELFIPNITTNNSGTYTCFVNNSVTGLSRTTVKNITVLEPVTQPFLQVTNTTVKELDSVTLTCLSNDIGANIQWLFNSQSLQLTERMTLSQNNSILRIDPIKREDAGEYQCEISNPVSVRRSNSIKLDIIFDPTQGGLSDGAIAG
Text: All of the recombinant human CEACAM-1/CD66a protein (R&D systems; Cat. No. 2244-CM, HCCM1), recombinant human CEACAM-5/CD66e protein (R&D systems; Cat. No. 4128-CM, HCCM5), recombinant human CEACAM-6/CD66c protein (R&D systems; Cat. No. 3934-CM, HCCM6), recombinant human CEACAM-3/CD66d protein (Sino Biological; Cat. No. 11933-H08H, HCCM3), recombinant mouse PD-1 Fc chimeric protein (R&D systems; Cat. No. 1021-PD, mPD-1-Fc), recombinant CEACAM1-Fc (IgG4) protein (Mogam, in-house production, HCCM1-Fc), recombinant human CEACAM-1/CD66a protein Bulk (R&D systems; Cat. No. 2244-CM, HCCM1 (bulk)) and mouse CEACAM1/CD66a protein (Sino Biological; Cat. No. 50571-M08H, mouse CCM1) (2.5 μg each) were dissolved in 10 ml of PBS, respectively and dispensed into a 96-well plate (Nunc; Cat. No. 467679) at 100 μl/well, which was incubated overnight at 4° C. Thereafter, each well was treated with 300 μl of 1% (v/v) bovine serum albumin, which was incubated at 37° C. for 1 hour.
(§1) The diluted antibodies were dispensed into each well coated with each protein at 100 μl/well, which was incubated at 37° C. for 1 hour. Then, each well was washed 3 times with a washing buffer prepared by diluting 10 μl of Tween 20 (Sigma-Aldrich; Cat. No. P9146) in 990 μl of PBS. Thereafter, 2 μl of HRP-conjugated human anti-IgG-Fab antibody (anti-human IgG Fab; Sigma; Cat. No. A0293) was diluted in 10 ml of PBS, added to the wells at 100 μl/well, and incubated for 1 hour.
(§2) After completion of the reaction, the wells were washed three times with the washing buffer, and 100 μl of TMB solution was added to each well to induce color development. Then, 100 μl of 2 M H₂SO₄ was added to each well to stop the reaction, and the absorbance was measured at a wavelength of 450 nm.

BSA = molecular target: T3, BSA (bovine, UniProt P02769); test: ELISA on coated antigen (0.25 µg/ml), HRP anti-human IgG Fc, OD450
T3 construct: blank antigen; also called BSA protein; bovine serum albumin
T3 sequence (P02769 25-607 limits assumed): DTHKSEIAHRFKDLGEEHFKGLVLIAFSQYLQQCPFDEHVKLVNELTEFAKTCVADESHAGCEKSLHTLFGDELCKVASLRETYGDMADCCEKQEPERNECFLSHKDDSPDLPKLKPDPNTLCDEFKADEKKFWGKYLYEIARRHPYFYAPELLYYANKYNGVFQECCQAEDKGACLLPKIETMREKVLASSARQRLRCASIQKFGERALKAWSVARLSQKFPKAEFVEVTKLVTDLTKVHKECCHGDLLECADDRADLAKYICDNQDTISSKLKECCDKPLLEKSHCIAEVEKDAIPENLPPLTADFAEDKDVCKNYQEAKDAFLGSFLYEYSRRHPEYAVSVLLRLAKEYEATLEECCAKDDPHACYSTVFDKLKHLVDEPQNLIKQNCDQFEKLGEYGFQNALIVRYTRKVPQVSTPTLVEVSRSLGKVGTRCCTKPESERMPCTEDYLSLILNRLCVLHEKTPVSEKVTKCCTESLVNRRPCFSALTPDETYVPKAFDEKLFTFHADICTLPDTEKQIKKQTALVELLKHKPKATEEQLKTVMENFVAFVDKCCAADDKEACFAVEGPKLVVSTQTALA
Text: (§3) All of the recombinant human CEACAM-1/CD66a protein (R&D systems; Cat No. 2244-CM, HCCM1), recombinant human CEACAM-5/CD66e protein (R&D systems; Cat. No. 4128-CM, HCCM5), recombinant human CEACAM-6/CD66c protein (R&D systems; Cat. No. 3934-CM, HCCM6), recombinant human CEACAM-3/CD66d protein (Sino Biological; Cat. No. 11933-H08H, HCCM3), human B7-H5/Gi24/VISTA protein (Sino Biological; Cat. No. 13482-H08H, HVISTA), recombinant human CEACAM-1/CD66a protein Bulk (R&D systems; Cat. No. 2244-CM, HCCM1 (bulk)), recombinant human CEACAM1-N domain-Kappa protein (Mogam, in-house production, HCCM1-N domain-kappa), and BSA protein (2.5 μg each) were dissolved in 10 ml of PBS, respectively, and dispensed into a 96-well plate at 100 μl/well, which was incubated at 4° C. overnight. Thereafter, each well was treated with 300 μl of 1% (v/v) bovine serum albumin, and incubated at 37° C. for 1 hour.
as §1, with “and” for “which was”, “anti-IgG-Fc” for “anti-IgG-Fab”, “Fc, Sigma” for “Fab; Sigma;”, “A0170)” for “A0293)”
as §2

HVISTA = molecular target: T4, HVISTA; test: as above
T4 construct: unrelated control antigen; also called human B7-H5/Gi24/VISTA protein (Sino Biological; Cat. No. 13482-H08H); not shown: the vendor's polyhistidine tag
T4 sequence (chain, as listed by the source limits assumed): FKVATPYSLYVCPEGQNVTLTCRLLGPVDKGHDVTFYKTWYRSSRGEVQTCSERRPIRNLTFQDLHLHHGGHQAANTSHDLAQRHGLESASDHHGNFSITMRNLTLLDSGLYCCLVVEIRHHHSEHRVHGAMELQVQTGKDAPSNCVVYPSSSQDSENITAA
Text: as §3
as §1, with “and” for “which was”, “anti-IgG-Fc” for “anti-IgG-Fab”, “Fc, Sigma” for “Fab; Sigma;”, “A0170)” for “A0293)”
as §2

B1: 4R9_H4-n20HC+4R26LC (antibody, human IgG4 S228P, lambda, V domains shown)
VH: EVQLLESGGGLVQPGGSLRLSCAASGFNFSNYAMSWVRQAPGKGLEWVSVISHGGGSIYYADSVKGRLTISRDNSKNTLYLQMNSLRAEDTAVYYCARDPTKGYAPTFDYWGQGTLVTVSS
VL: QSVLTQPPSASGTPGQRVTISCSGSSSNIGNNYVSWYQQLPGTAPKLLIYADSKRLSGVPDRFSGSKSGTSASLAISGLRSEDEADYYCGAWDGRLNGYVFGGGTKLTVLG
- Kd [1]: 25.7 nM
- koff [1]: 0.000321 s⁻¹
- kon [1]: 19000 M⁻¹ s⁻¹

B2: C16 (antibody, human IgG4 S228P, lambda, V domains shown)
VH: EVQLLESGGGLVQPGGSLRLSCAASGFTFSNYSMSWVRQAPGKGLEWVSAISSDGGSKYYADSVKGRFTISRDNSKNTLYLQMNSLRAEDTAVYYCARDPRKHVDRYFDYWGQGTLVTVSS
VL: QSVLTQPPSASGTPGQRVTISCSGSSSNIGSNTVSWYQQLPGTAPKLLIYADNNRPSGVPDRFSGSKSGTSASLAISGLRSEDEADYYCGTWDYSLSGYVLGGGTKLTVLG
- binding result (mCCM1): no binding (tested: 3 µg/ml (single concentration))
- binding result (BSA): no binding (tested: 3 µg/ml (single concentration))
- binding result (HVISTA): no binding (tested: 3 µg/ml (single concentration))
